Source: patent publication US20260014232A1, “Pharmaceutical Composition of GLP-1 and GIP Receptor Dual Agonist and Use Thereof” (Jiangsu Hengrui Pharmaceuticals Co., Ltd., priority 2021, published 2026)
Starred links: 1 amine or outer side, 2 acyl side, 3 side chain; linkers in the order of their positions; H or OH if unused. Non-standard residues stand in square brackets, D forms with d. Groups on a side chain read outwards from the residue. No end group written: not given here. *: point of attachment. Arachidoyl = CCCCCCCCCCCCCCCCCCCC(=O)*; γGlu = O=C(O)[C@H](CCC(=O)[*:2])N[*:1]; AEEA = NCCOCCOCC(=O)O; Aib = CC(C)(N)C(=O)O

T1: human glucose-dependent insulinotropic polypeptide receptor (GIPR) (human, UniProt P48546 22-466)
T1 sequence (looked up): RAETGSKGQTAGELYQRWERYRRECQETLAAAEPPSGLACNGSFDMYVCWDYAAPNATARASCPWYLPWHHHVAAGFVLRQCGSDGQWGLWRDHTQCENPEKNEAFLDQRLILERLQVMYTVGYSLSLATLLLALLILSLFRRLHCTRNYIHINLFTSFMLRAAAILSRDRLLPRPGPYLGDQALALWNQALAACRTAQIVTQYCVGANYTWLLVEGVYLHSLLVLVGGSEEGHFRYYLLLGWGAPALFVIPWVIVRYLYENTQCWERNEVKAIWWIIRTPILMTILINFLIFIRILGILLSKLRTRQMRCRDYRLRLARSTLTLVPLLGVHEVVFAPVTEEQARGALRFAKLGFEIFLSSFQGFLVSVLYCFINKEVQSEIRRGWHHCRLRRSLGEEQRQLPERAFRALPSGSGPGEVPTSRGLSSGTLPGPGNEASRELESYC


Assays:
[1] = target: human glucagon-like peptide-1 receptor (GLP-1R) (human, UniProt P43220 24-463); experiment: cell-based or functional assay
[2] = target: T1, human glucose-dependent insulinotropic …; experiment: cell-based or functional assay

| Binder | Activity against human GLP-1R (EC50 nM); cAMP HTRF, CHO-K1/GLP-1R/CRE-luc cells [1] | Activity against human GIPR (EC50 nM); cAMP HTRF, CHO-K1 cells overexpressing hGIP receptor [2] |
| --- | --- | --- |
| Y[Aib]EGTFTSDYSIYK([AEEA-AEEA-γGlu-Arachidoyl])ERIAAQEFVNWLIAGGPSSGAPPPS-NH2 (N-terminus assumed; SMILES CCCCCCCCCCCCCCCCCCCC(=O)N[C@@H](CCC(=O)NCCOCCOCC(=O)NCCOCCOCC(=O)NCCCC[C@H](NC(=O)[C@H](Cc1ccc(O)cc1)NC(=O)[C@@H](NC(=O)[C@H](CO)NC(=O)[C@H](Cc1ccc(O)cc1)NC(=O)[C@H](CC(=O)O)NC(=O)[C@H](CO)NC(=O)[C@@H](NC(=O)[C@H](Cc1ccccc1)NC(=O)[C@@H](NC(=O)CNC(=O)[C@H](CCC(=O)O)NC(=O)C(C)(C)NC(=O)[C@@H](N)Cc1ccc(O)cc1)[C@@H](C)O)[C@@H](C)O)[C@@H](C)CC)C(=O)N[C@@H](CCC(=O)O)C(=O)N[C@@H](CCCNC(=N)N)C(=O)N[C@H](C(=O)N[C@@H](C)C(=O)N[C@@H](C)C(=O)N[C@@H](CCC(N)=O)C(=O)N[C@@H](CCC(=O)O)C(=O)N[C@@H](Cc1ccccc1)C(=O)N[C@H](C(=O)N[C@@H](CC(N)=O)C(=O)N[C@@H](Cc1c[nH]c2ccccc12)C(=O)N[C@@H](CC(C)C)C(=O)N[C@H](C(=O)N[C@@H](C)C(=O)NCC(=O)NCC(=O)N1CCC[C@H]1C(=O)N[C@@H](CO)C(=O)N[C@@H](CO)C(=O)NCC(=O)N[C@@H](C)C(=O)N1CCC[C@H]1C(=O)N1CCC[C@H]1C(=O)N1CCC[C@H]1C(=O)N[C@@H](CO)C(N)=O)[C@@H](C)CC)C(C)C)[C@@H](C)CC)C(=O)O) [compound 13#] | 0.017 nM | 0.13 nM |
| Y[Aib]EGTFTSDYSIYLEK([AEEA-AEEA-γGlu-Arachidoyl])IAAQEFVNWLIAGGPSSGAPPPS-NH2 [compound 9#] | 0.049 nM | 0.04 nM |
| Y[Aib]EGTFTSDYSIYK([AEEA-AEEA-γGlu-Arachidoyl])ERIAAQEFINWLIAGGPSSGAPPPS-NH2 (N-terminus assumed; SMILES CCCCCCCCCCCCCCCCCCCC(=O)N[C@@H](CCC(=O)NCCOCCOCC(=O)NCCOCCOCC(=O)NCCCC[C@H](NC(=O)[C@H](Cc1ccc(O)cc1)NC(=O)[C@@H](NC(=O)[C@H](CO)NC(=O)[C@H](Cc1ccc(O)cc1)NC(=O)[C@H](CC(=O)O)NC(=O)[C@H](CO)NC(=O)[C@@H](NC(=O)[C@H](Cc1ccccc1)NC(=O)[C@@H](NC(=O)CNC(=O)[C@H](CCC(=O)O)NC(=O)C(C)(C)NC(=O)[C@@H](N)Cc1ccc(O)cc1)[C@@H](C)O)[C@@H](C)O)[C@@H](C)CC)C(=O)N[C@@H](CCC(=O)O)C(=O)N[C@@H](CCCNC(=N)N)C(=O)N[C@H](C(=O)N[C@@H](C)C(=O)N[C@@H](C)C(=O)N[C@@H](CCC(N)=O)C(=O)N[C@@H](CCC(=O)O)C(=O)N[C@@H](Cc1ccccc1)C(=O)N[C@H](C(=O)N[C@@H](CC(N)=O)C(=O)N[C@@H](Cc1c[nH]c2ccccc12)C(=O)N[C@@H](CC(C)C)C(=O)N[C@H](C(=O)N[C@@H](C)C(=O)NCC(=O)NCC(=O)N1CCC[C@H]1C(=O)N[C@@H](CO)C(=O)N[C@@H](CO)C(=O)NCC(=O)N[C@@H](C)C(=O)N1CCC[C@H]1C(=O)N1CCC[C@H]1C(=O)N1CCC[C@H]1C(=O)N[C@@H](CO)C(N)=O)[C@@H](C)CC)[C@@H](C)CC)[C@@H](C)CC)C(=O)O) [compound 15#] | 0.015 nM | 0.23 nM |
| Y[Aib]EGTFTSDYSIYK([AEEA-AEEA-γGlu-Arachidoyl])EKIAAQEFINWLIAGGPSSGAPPPS-NH2 (N-terminus assumed; SMILES CCCCCCCCCCCCCCCCCCCC(=O)N[C@@H](CCC(=O)NCCOCCOCC(=O)NCCOCCOCC(=O)NCCCC[C@H](NC(=O)[C@H](Cc1ccc(O)cc1)NC(=O)[C@@H](NC(=O)[C@H](CO)NC(=O)[C@H](Cc1ccc(O)cc1)NC(=O)[C@H](CC(=O)O)NC(=O)[C@H](CO)NC(=O)[C@@H](NC(=O)[C@H](Cc1ccccc1)NC(=O)[C@@H](NC(=O)CNC(=O)[C@H](CCC(=O)O)NC(=O)C(C)(C)NC(=O)[C@@H](N)Cc1ccc(O)cc1)[C@@H](C)O)[C@@H](C)O)[C@@H](C)CC)C(=O)N[C@@H](CCC(=O)O)C(=O)N[C@@H](CCCCN)C(=O)N[C@H](C(=O)N[C@@H](C)C(=O)N[C@@H](C)C(=O)N[C@@H](CCC(N)=O)C(=O)N[C@@H](CCC(=O)O)C(=O)N[C@@H](Cc1ccccc1)C(=O)N[C@H](C(=O)N[C@@H](CC(N)=O)C(=O)N[C@@H](Cc1c[nH]c2ccccc12)C(=O)N[C@@H](CC(C)C)C(=O)N[C@H](C(=O)N[C@@H](C)C(=O)NCC(=O)NCC(=O)N1CCC[C@H]1C(=O)N[C@@H](CO)C(=O)N[C@@H](CO)C(=O)NCC(=O)N[C@@H](C)C(=O)N1CCC[C@H]1C(=O)N1CCC[C@H]1C(=O)N1CCC[C@H]1C(=O)N[C@@H](CO)C(N)=O)[C@@H](C)CC)[C@@H](C)CC)[C@@H](C)CC)C(=O)O) [compound 14#] | 0.013 nM | 0.13 nM |
| Y[Aib]EGTFTSDYSIYK([AEEA-AEEA-γGlu-Arachidoyl])EKIAAQEFVNWLIAGGPSSGAPPPS-NH2 (N-terminus assumed; SMILES CCCCCCCCCCCCCCCCCCCC(=O)N[C@@H](CCC(=O)NCCOCCOCC(=O)NCCOCCOCC(=O)NCCCC[C@H](NC(=O)[C@H](Cc1ccc(O)cc1)NC(=O)[C@@H](NC(=O)[C@H](CO)NC(=O)[C@H](Cc1ccc(O)cc1)NC(=O)[C@H](CC(=O)O)NC(=O)[C@H](CO)NC(=O)[C@@H](NC(=O)[C@H](Cc1ccccc1)NC(=O)[C@@H](NC(=O)CNC(=O)[C@H](CCC(=O)O)NC(=O)C(C)(C)NC(=O)[C@@H](N)Cc1ccc(O)cc1)[C@@H](C)O)[C@@H](C)O)[C@@H](C)CC)C(=O)N[C@@H](CCC(=O)O)C(=O)N[C@@H](CCCCN)C(=O)N[C@H](C(=O)N[C@@H](C)C(=O)N[C@@H](C)C(=O)N[C@@H](CCC(N)=O)C(=O)N[C@@H](CCC(=O)O)C(=O)N[C@@H](Cc1ccccc1)C(=O)N[C@H](C(=O)N[C@@H](CC(N)=O)C(=O)N[C@@H](Cc1c[nH]c2ccccc12)C(=O)N[C@@H](CC(C)C)C(=O)N[C@H](C(=O)N[C@@H](C)C(=O)NCC(=O)NCC(=O)N1CCC[C@H]1C(=O)N[C@@H](CO)C(=O)N[C@@H](CO)C(=O)NCC(=O)N[C@@H](C)C(=O)N1CCC[C@H]1C(=O)N1CCC[C@H]1C(=O)N1CCC[C@H]1C(=O)N[C@@H](CO)C(N)=O)[C@@H](C)CC)C(C)C)[C@@H](C)CC)C(=O)O) [compound 12#] | 0.03 nM | 0.17 nM |
| Y[Aib]EGTFTSDYSIYLEK([AEEA-AEEA-γGlu-Arachidoyl])IAAQEFINWLIAGGPSSGAPPPS-NH2 (N-terminus assumed; SMILES CCCCCCCCCCCCCCCCCCCC(=O)N[C@@H](CCC(=O)NCCOCCOCC(=O)NCCOCCOCC(=O)NCCCC[C@H](NC(=O)[C@H](CCC(=O)O)NC(=O)[C@H](CC(C)C)NC(=O)[C@H](Cc1ccc(O)cc1)NC(=O)[C@@H](NC(=O)[C@H](CO)NC(=O)[C@H](Cc1ccc(O)cc1)NC(=O)[C@H](CC(=O)O)NC(=O)[C@H](CO)NC(=O)[C@@H](NC(=O)[C@H](Cc1ccccc1)NC(=O)[C@@H](NC(=O)CNC(=O)[C@H](CCC(=O)O)NC(=O)C(C)(C)NC(=O)[C@@H](N)Cc1ccc(O)cc1)[C@@H](C)O)[C@@H](C)O)[C@@H](C)CC)C(=O)N[C@H](C(=O)N[C@@H](C)C(=O)N[C@@H](C)C(=O)N[C@@H](CCC(N)=O)C(=O)N[C@@H](CCC(=O)O)C(=O)N[C@@H](Cc1ccccc1)C(=O)N[C@H](C(=O)N[C@@H](CC(N)=O)C(=O)N[C@@H](Cc1c[nH]c2ccccc12)C(=O)N[C@@H](CC(C)C)C(=O)N[C@H](C(=O)N[C@@H](C)C(=O)NCC(=O)NCC(=O)N1CCC[C@H]1C(=O)N[C@@H](CO)C(=O)N[C@@H](CO)C(=O)NCC(=O)N[C@@H](C)C(=O)N1CCC[C@H]1C(=O)N1CCC[C@H]1C(=O)N1CCC[C@H]1C(=O)N[C@@H](CO)C(N)=O)[C@@H](C)CC)[C@@H](C)CC)[C@@H](C)CC)C(=O)O) [compound 10#] | 0.065 nM | 0.056 nM |
